Measured values from patent publication US5670477A, “Method to enhance permeability of the blood/brain blood/nerve bariers to therapeutic agents” (Poduslo; Joseph F., priority 1995, dated 1997).
Several values for one entry are separate records, joined by “and”; a condition that tells them apart may be missing. Equal values may be shown once.

Tests used:
[1] = plasma half-life from plasma clearance curves after I.V. bolus; settings: for t1 (plasma half-life): Table 5, n = 6
Method: Animals and Reagents. Male Sprague-Dawley rats (24-weeks-old, 460-500 g) were obtained from Bio Lab (St. Paul) and were used to determine the PS and Vp measurements. All animals were kept for a minimum of 3 days under standard housing conditions and feeding schedules prior to the experiments. […] Insulin (Mr =6000) was obtained as humulin RU-100 from Eli Lily. […] Affinity purified human IgG was obtained from Accurate Chemicals (Mr =150,000). […] Plasma half-lives were determined from plasma clearance curves for all the proteins using the standard exponential decay equation in In Plot Scientific Graphics (Graph Pad Software).
The experimental protocol employed was based on the methods of Ohno et al. Am. […] Over the next 30 or 60 minutes, serial blood samples were collected from the brachial artery to generate a plasma washout curve.

[2] = PS and Vp of the blood-nerve barrier, radioiodinated I.V. bolus; format: in vivo, rat (Sprague-Dawley)
Method: (§1) Free radioactive iodine was separated from the radiolabeled conjugates and agents by dialysis against 0.2M NaI.
(§2) After the final blood sample was collected, the animal was sacrificed, the brain and meninges removed, and the brain dissected into the cortex, caudateputamen (neostriatum), hippocampus, thalamus, brain stem, and cerebellum. The sciatic nerve was also rapidly removed and desheathed. Tissue was lyophilized, and dry weights were determined with a microbalance and converted to respective wet weights with wet weightry weight ratios previously determined for the desheathed rat sciatic nerve and the various brain regions. […] Statistical evaluations were performed using the t-test with significance accepted at the P<0.05 level.

[3] = PS and Vp of the blood-brain barrier, radioiodinated I.V. bolus; format: in vivo, rat (Sprague-Dawley)
Method: as §1, §2

[4] = isoelectric focusing (Coomassie blue); format: physicochemical; settings: Coomassie blue stain
Method: Protein samples were solubilized in SDS under reducing conditions with 2-mercaptoethanol followed by electrophoresis and staining with Coomassie blue. Pharmacia low molecular weight calibration kit was used for the protein standards. The 40% Bio-Lyte 3/10 ampholyte from Bio-Rad was used for isoelectric focusing with an acrylamide monomer concentration of 25% T and 3% C. Polymerization time was 15 minutes, with 5 minutes allowed for sample diffusion. Electrophoresis time was 45 minutes with increasing voltage to a maximum voltage of 450 volts for the last 15 minutes. IEF standards were obtained from Bio-Rad and contained nine natural proteins with the isoelectic points ranging from 4.45 to 9.6 and were visualized with Coomassie blue.

[5] = system: choline acetyltransferase (ChAT); test: choline acetyltransferase (ChAT) activity in brain regions after parenteral administration; format: in vivo, mouse (BALB/cJ)
Method: Adult BALB/cJ mice were used. The injection site was alternated on a daily basis between I.M. (thigh) and I.V. injection (tail vein), and the vehicle consisted of 1.5 mg/ml of BSA in 0.9% NaCl. The amount of NGF or PUT-NGF injected was 15 μg/day/animal for a duration of 14 days. Three groups of animals (n=7) were injected with either vehicle alone, NGF, and PUT-NGF. At the end of the experiment, the brains were removed and dissected into five regions which included the septum, hippocampus, nucleus basalis (substantia innominata), caudate-putamen (neostriatum), and cortex and stored at -70° C. The septum was dissected from the hippocampus at the fornix and continued into the basal forebrain.
Subsequently, a radiochemical assay using [1-^14 C] acetyl-CoA was performed according to the method of Fonnum. Fonnum, "A rapid radiochemical method for the determination of choline acetyltransferase", J. Neurochem., 24, 407 (1975). Data were expressed as cpm/μg protein and are given as mean ± SEM. Protein concentration was determined by the BCA procedure (Smith et al., "Measurement of protein using bicinchoninic acid", Anal. Biochem., 150, 76 (1985)) with the Pierce assay kit using bovine serum albumin as a standard. Statistical analysis was by the unpaired t-test (two-tailed) with significance accepted as P<0.05.

[6] = 15 μg/day/animal, 14 days, x ± SEM, n = 7

| Molecule | PS of the BNB ([2]; nerve / endoneurium) | PS of the BNB ([2]; nerve, x ± SEM) | Vp (residual plasma volume) of the BNB ([2]; nerve, x ± SEM) | PS of the BBB ([3]; brain stem, x ± SEM) | Vp of the BBB ([3]; brain stem, x ± SEM) | PS of the BBB ([3]; caudate-putamen, x ± SEM) | Vp of the BBB ([3]; caudate-putamen, x ± SEM) | PS of the BBB ([3]; cerebellum, x ± SEM) | Vp of the BBB ([3]; cerebellum, x ± SEM) | PS of the BBB ([3]; cortex, x ± SEM) | Vp of the BBB ([3]; cortex, x ± SEM) | Vp of the BBB ([3]; hippocampus, x ± SEM) | PS of the BBB ([3]; thalamus, x ± SEM) | t1 (plasma half-life) ([1]; x ± SEM) [min] | pI (isoelectric point) [4] | PS of the BBB ([3]; hippocampus, x ± SEM) | Vp of the BBB ([3]; thalamus, x ± SEM) | other results |
| --- | --- | --- | --- | --- | --- | --- | --- | --- | --- | --- | --- | --- | --- | --- | --- | --- | --- | --- |
| INS: Insulin (Mr =6000) obtained as humulin RU-100 from Eli Lily [reference compound] | 3.32e-05 mL/g/s | 33.19 ± 2.05 ml/g/sec × 10^6 | 5.05 ± 0.87 µL/g | 22.62 ± 3.35 ml/sec × 10^6 | 12.35 ± 0.99 µL/g | 16.88 ± 1.79 ml/sec × 10^6 | 6.08 ± 0.30 µL/g | 20.12 ± 2.78 ml/sec × 10^6 | 10.56 ± 0.96 µL/g | 15.78 ± 2.45 ml/sec × 10^6 | 6.44 ± 0.49 µL/g | 7.04 ± 0.68 µL/g | 18.42 ± 2.41 ml/sec × 10^6 |  |  |  |  | t1/2 (plasma half-life) ([1]; Table 4, x ± SEM, n = 5): 1.18 ± 0.09 min |
| SOD: superoxide dismutase isolated from bovine erythrocytes, monomeric molecular weight 16,250 daltons | 2.24 10^-6 mL/g/sec | 1.79 ± 0.12 ml/g/sec × 10^6 and 2.24 ± 0.22 ml/g/sec × 10^6 | 1.87 ± 0.10 µL/g and 2.63 ± 0.22 µL/g | 3.19 ± 0.13 ml/g/sec × 10^6 and 3.13 ± 0.14 ml/g/sec × 10^6 | 13.77 ± 2.10 µL/g and 16.26 ± 1.22 µL/g | 1.52 ± 0.07 ml/g/sec × 10^6 and 1.78 ± 0.11 ml/g/sec × 10^6 | 5.62 ± 0.23 µL/g and 5.76 ± 0.40 µL/g | 2.94 ± 0.14 ml/g/sec × 10^6 and 2.69 ± 0.11 ml/g/sec × 10^6 | 10.20 ± 0.89 µL/g and 14.61 ± 1.09 µL/g | 1.81 ± 0.06 ml/g/sec × 10^6 and 1.80 ± 0.09 ml/g/sec × 10^6 | 6.13 ± 0.34 µL/g and 5.77 ± 0.34 µL/g | 7.94 ± 0.25 µL/g and 7.26 ± 0.77 µL/g | 2.61 ± 0.15 ml/g/sec × 10^6 and 2.71 ± 0.20 ml/g/sec × 10^6 | 3.64 ± 0.21 | 4.95 | 1.98 ± 0.08 ml/g/sec × 10^6 and 2.15 ± 0.01 ml/g/sec × 10^6 | 9.73 ± 0.43 µL/g and 12.83 ± 1.97 µL/g | PS of the BNB ([2]; nerve): 1.79 ± 0.12 10^-6 mL/g/sec; PS of the BNB relative to native albumin ([2]; nerve, albumin compared from Poduslo et al. 1994): approximately 22 fold; PS of the BBB ([3]; brain stem): 3.13e-06 mL/g/s; PS of the BBB relative to native albumin ([3]; brain stem): 54 fold; PS of the BBB ([3]; caudate-putamen): approximately 1.8 ×10^-6 ml/sec; PS of the BBB ([3]; cortex): approximately 1.8 ×10^-6 ml/sec; PS of the BBB relative to native albumin ([3]; cortex): 12 fold |
| SPD-SOD: SOD modified with spermidine using water-soluble carbodiimide at pH 4.7 | 2.41e-05 mL/g/s | 24.1 ± 1.23 ml/g/sec × 10^6 | 3.03 ± 0.35 µL/g | 36.85 ± 1.70 ml/g/sec × 10^6 | 13.94 ± 1.29 µL/g | 32.65 ± 2.03 ml/g/sec × 10^6 | 8.23 ± 0.40 µL/g | 37.28 ± 1.01 ml/g/sec × 10^6 | 12.59 ± 0.90 µL/g | 25.00 ± 0.90 ml/g/sec × 10^6 | 7.10 ± 0.31 µL/g | 7.73 ± 0.58 µL/g | 34.35 ± 1.42 ml/g/sec × 10^6 | 0.75 ± 0.05 |  | 28.75 ± 1.39 ml/g/sec × 10^6 | 11.23 ± 0.63 µL/g | decrease of plasma half-life versus native protein ([1]; fold less than native protein): 4.9 fold; PS of the BNB, RI vs. native protein ([2]; nerve): 10.8; PS of the BNB, relative increase vs. native protein ([2]; nerve): 10.8 fold; Vp of the BNB, RI vs. native protein ([2]; nerve): 1.2; PS of the BBB, RI vs. native protein ([3]; brain stem): 11.8; Vp of the BBB, RI vs. native protein ([3]; brain stem): 1.0; PS of the BBB, RI vs. native protein ([3]; caudate-putamen): 18.3; Vp of the BBB, RI vs. native protein ([3]; caudate-putamen): 1.4; PS of the BBB, RI vs. native protein ([3]; cerebellum): 13.9; Vp of the BBB, RI vs. native protein ([3]; cerebellum): 1.2; PS of the BBB, RI vs. native protein ([3]; cortex): 13.9; Vp of the BBB, RI vs. native protein ([3]; cortex): 1.2; PS of the BBB, RI vs. native protein ([3]; hippocampus): 13.4; Vp of the BBB, RI vs. native protein ([3]; hippocampus): 1.1; PS of the BBB, RI vs. native protein ([3]; thalamus): 12.7; Vp of the BBB, RI vs. native protein ([3]; thalamus): 1.2 |
| NGF: Ultrapure 2.5S nerve growth factor (printed 2.55 NGF) from Harlan Bioproducts (protein, UniProt P01139 122-241, looked up) Beta-nerve growth factor: SSTHPVFHMGEFSVCDSVSVWVGDKTTATDIKGKEVTVLAEVNINNSVFRQYFFETKCRASNPVESGCRGIDSKHWNSYCTTTHTFVKALTTDEKQAAWRFIRIDTACVCVLSRKATRRG |  | 1.74 ± 0.15 ml/g/sec × 10^6 | 1.53 ± 0.12 µL/g | 3.38 ± 0.09 ml/g/sec × 10^6 | 16.60 ± 1.01 µL/g | 1.64 ± 0.04 ml/g/sec × 10^6 | 5.78 ± 0.42 µL/g | 2.93 ± 0.10 ml/g/sec × 10^6 | 11.54 ± 0.71 µL/g | 1.91 ± 0.07 ml/g/sec × 10^6 | 7.19 ± 0.20 µL/g | 8.56 ± 0.21 µL/g | 2.79 ± 0.09 ml/g/sec × 10^6 |  | major band with an isoelectric point less than cytochrome c | 2.30 ± 0.10 ml/g/sec × 10^6 | 11.65 ± 0.81 µL/g | ChAT activity, caudate-putamen [5, 6]: 559 ± 47 cpm/μg protein; ChAT activity, cortex [5, 6]: 294 ± 9 cpm/μg protein; ChAT activity, hippocampus [5, 6]: 236 ± 17 cpm/μg protein; ChAT activity, nucleus basalis [5, 6]: 109 ± 15 cpm/μg protein; ChAT activity, septum [5, 6]: 443 ± 65 cpm/μg protein; ChAT activity versus comparator, in words ([5]; NGF vs vehicle: five brain regions, PUT-NGF vs NGF: hippocampus, caudate-putamen, cortex): no significant difference; ChAT activity, NGF vs. Vehicle % Increase ([5]; caudate-putamen): 18.4%; ChAT activity, NGF vs. Vehicle % Increase ([5]; cortex): 4.6%; ChAT activity, NGF vs. Vehicle % Increase ([5]; hippocampus): 0.4%; ChAT activity, NGF vs. Vehicle % Increase ([5]; nucleus basalis): 12.4%; ChAT activity, NGF vs. Vehicle % Increase ([5]; septum): 0.2% |
